Data published in patent US20240109955A1.
Where two headings read alike, the source gives them in different places.

How the values were obtained:
Test in all cases: cell-based or functional assay
[1] = biological target: SARS-CoV-2 spike (S) protein, Omicron sublineage BQ 1.1 (R346T, K444T, F486V) (SARS-CoV-2) (UniProt P0DTC2)
[2] = biological target: SARS-CoV-2 Omicron BA.4.6 spike protein (R346T, F486V) (SARS-CoV-2) (UniProt P0DTC2)
[3] = biological target: SARS-CoV-2 spike (S) protein, Omicron sublineage BF.7 (R346T, F486V) (SARS-CoV-2) (UniProt P0DTC2)
[4] = biological target: SARS-CoV-2 spike (S) protein, Omicron sublineage BA.4.6 (R346T, F486V) (SARS-CoV-2) (UniProt P0DTC2)
[5] = biological target: SARS-CoV-2 spike (S) protein, Omicron sublineage BA.4.7 (R346S, F486V) (SARS-CoV-2) (UniProt P0DTC2)
[6] = biological target: SARS-CoV-2 spike (S) protein, Omicron sublineage BA.1.1 (R346K) (SARS-CoV-2) (UniProt P0DTC2)
[7] = biological target: SARS-CoV-2 spike (S) protein, Omicron variant BA.2.12.1 (SARS-CoV-2) (UniProt P0DTC2)
[8] = biological target: SARS-CoV-2 spike (S) protein, Omicron variant BA.1 (SARS-CoV-2) (UniProt P0DTC2)
[9] = biological target: SARS-CoV-2 spike (S) protein, Omicron variant BA.2 (SARS-CoV-2) (UniProt P0DTC2)
[10] = biological target: SARS-CoV-2 spike protein, Omicron sublineage BF.7 (R346T, F486V) (SARS-CoV-2) (UniProt P0DTC2)
[11] = biological target: SARS-CoV-2 spike protein, Omicron sublineage BA.1.1 (R346K) (SARS-CoV-2) (UniProt P0DTC2)
[12] = biological target: SARS-CoV-2 spike protein, Omicron sublineage BQ.1.1 (R346T, K444T, F486V) (SARS-CoV-2) (UniProt P0DTC2)
[13] = biological target: SARS-CoV-2 spike protein, Omicron sublineage BA.4.6 (R346T, F486V) (SARS-CoV-2) (UniProt P0DTC2)
[14] = biological target: SARS-CoV-2 spike protein, Omicron sublineage BA.4.7 (R346S, F486V) (SARS-CoV-2) (UniProt P0DTC2)
[15] = biological target: SARS-CoV-2 spike (S) protein, Omicron variant BA.4/5 (SARS-CoV-2) (UniProt P0DTC2)
[16] = biological target: SARS-CoV-2 spike protein, Alpha variant (B.1.1.7) (SARS-CoV-2)
[17] = biological target: SARS-CoV-2 spike (S) protein, C.1.2 variant (SARS-CoV-2) (UniProt P0DTC2)
[18] = biological target: SARS-CoV-2 spike protein, Beta variant 1 (B.1.351.v1) (SARS-CoV-2)
[19] = biological target: SARS-CoV-2 spike protein, Delta variant (B.1.617.2) (SARS-CoV-2)
[20] = biological target: SARS-CoV-2 spike protein, Gamma variant (P.1) (SARS-CoV-2)
[21] = biological target: SARS-CoV-2 spike (S) protein, Mu variant (B.1.621) (SARS-CoV-2) (UniProt P0DTC2)
[22] = biological target: SARS-CoV-2 spike protein, Omicron variant (B.1.1.529) (SARS-CoV-2) (UniProt P0DTC2)
[23] = biological target: SARS-CoV-2 spike protein, Omicron sublineage BA.1.1 (R346K) (SARS-CoV-2) (UniProt P0DTC2); remark: listed apart in the source
[24] = biological target: SARS-CoV-2 spike (S) protein, Omicron variant BA1.1.529 (SARS-CoV-2) (UniProt P0DTC2)
[25] = biological target: SARS-CoV-2 spike (S) protein, Lambda variant (C.37) (SARS-CoV-2) (UniProt P0DTC2)
[26] = biological target: SARS-CoV-2 spike (S) protein, Iota variant (B.1.526) (SARS-CoV-2) (UniProt P0DTC2)
[27] = biological target: SARS-CoV-2 spike (S) protein, Alpha variant (B.1.1.7) (SARS-CoV-2) (UniProt P0DTC2)

Chain of MX413 (A19-61 x A23-58H/B1-182L) (bispecific antibody) (chain): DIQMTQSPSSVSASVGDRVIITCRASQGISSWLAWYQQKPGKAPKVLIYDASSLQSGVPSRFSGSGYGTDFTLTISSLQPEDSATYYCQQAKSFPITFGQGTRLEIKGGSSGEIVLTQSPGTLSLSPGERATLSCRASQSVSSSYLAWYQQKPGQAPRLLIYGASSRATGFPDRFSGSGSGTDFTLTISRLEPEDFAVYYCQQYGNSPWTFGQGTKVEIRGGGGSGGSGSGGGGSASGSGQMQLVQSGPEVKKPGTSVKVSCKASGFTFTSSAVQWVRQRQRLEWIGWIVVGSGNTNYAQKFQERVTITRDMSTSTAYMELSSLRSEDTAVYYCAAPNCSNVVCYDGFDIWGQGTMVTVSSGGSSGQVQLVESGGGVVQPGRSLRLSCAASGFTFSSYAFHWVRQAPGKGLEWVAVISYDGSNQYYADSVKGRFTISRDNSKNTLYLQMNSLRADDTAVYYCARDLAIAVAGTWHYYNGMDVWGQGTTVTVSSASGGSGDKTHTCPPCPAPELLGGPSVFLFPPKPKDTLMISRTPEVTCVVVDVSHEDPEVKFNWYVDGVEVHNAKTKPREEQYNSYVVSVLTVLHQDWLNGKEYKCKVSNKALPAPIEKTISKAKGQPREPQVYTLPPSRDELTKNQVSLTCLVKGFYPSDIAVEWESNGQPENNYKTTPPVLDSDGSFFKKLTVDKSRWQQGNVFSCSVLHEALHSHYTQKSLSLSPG
Chain of MX492 (A19-46 x A23-58H/B1-182L) (bispecific antibody) (chain): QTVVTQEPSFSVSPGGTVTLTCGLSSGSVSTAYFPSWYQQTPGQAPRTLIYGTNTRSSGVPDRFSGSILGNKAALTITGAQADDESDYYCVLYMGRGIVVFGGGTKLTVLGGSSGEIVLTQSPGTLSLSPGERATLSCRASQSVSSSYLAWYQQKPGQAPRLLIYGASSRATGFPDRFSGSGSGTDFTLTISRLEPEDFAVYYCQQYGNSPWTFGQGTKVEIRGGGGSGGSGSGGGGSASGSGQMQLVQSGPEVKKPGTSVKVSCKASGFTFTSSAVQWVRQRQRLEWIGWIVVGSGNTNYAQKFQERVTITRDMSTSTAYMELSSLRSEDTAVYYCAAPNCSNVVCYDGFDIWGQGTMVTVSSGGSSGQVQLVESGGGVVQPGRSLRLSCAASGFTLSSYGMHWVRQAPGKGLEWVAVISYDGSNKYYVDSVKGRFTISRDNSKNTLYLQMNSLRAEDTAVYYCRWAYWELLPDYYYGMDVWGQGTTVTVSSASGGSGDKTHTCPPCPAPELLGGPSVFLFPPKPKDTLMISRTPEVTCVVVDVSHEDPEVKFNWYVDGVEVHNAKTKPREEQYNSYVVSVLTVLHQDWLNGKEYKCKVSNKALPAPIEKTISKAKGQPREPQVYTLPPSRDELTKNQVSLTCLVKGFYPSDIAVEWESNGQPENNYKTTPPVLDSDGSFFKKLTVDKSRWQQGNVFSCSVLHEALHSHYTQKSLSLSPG

MX492 (A19-46 x A23-58H/B1-182L) (bispecific antibody)
IC50, pseudovirus neutralization [1]: > 10000 nM
IC80, pseudovirus neutralization [1]: > 10000 nM
IC50, pseudovirus neutralization [2]: > 10000 nM
IC80, pseudovirus neutralization [2]: > 10000 nM
IC50, pseudovirus neutralization [3]: > 10000 nM
IC80, pseudovirus neutralization [3]: > 10000 nM
IC50, pseudovirus neutralization [4]: 21.4 nM
IC80, pseudovirus neutralization [4]: 24.5 nM
IC50, pseudovirus neutralization [5]: 13.3 nM
IC80, pseudovirus neutralization [5]: 154 nM
IC50, pseudovirus neutralization [6]: 8.77 nM
IC80, pseudovirus neutralization [6]: 68 nM

MX501 (A19-46 × A23-58H/B1-182L/A19-61 × A23-58H/B1-182L)
IC50, pseudovirus neutralization [7]: 0.0405 nM
IC80, pseudovirus neutralization [7]: 0.0927 nM
IC50, pseudovirus neutralization [8]: 0.0285 nM
IC80, pseudovirus neutralization [8]: 0.0876 nM
IC50, pseudovirus neutralization [9]: 0.0097 nM
IC80, pseudovirus neutralization [9]: 0.025 nM
IC50, pseudovirus neutralization [10]: > 10000 nM
IC80, pseudovirus neutralization [10]: > 10000 nM
IC50, pseudovirus neutralization [11]: 20.5 nM
IC80, pseudovirus neutralization [11]: 77.2 nM
IC50, pseudovirus neutralization [12]: > 10000 nM
IC80, pseudovirus neutralization [12]: > 10000 nM
IC50, pseudovirus neutralization [13]: > 10000 nM
IC80, pseudovirus neutralization [13]: > 10000 nM
IC50, pseudovirus neutralization [14]: > 10000 nM
IC80, pseudovirus neutralization [14]: > 10000 nM

MX500 (A19-46 × A23-58H/B1-182L/A23-58H/B1-182L × A19-61)
IC50, pseudovirus neutralization [7]: 0.0655 nM
IC80, pseudovirus neutralization [7]: 0.145 nM
IC50, pseudovirus neutralization [8]: 0.0639 nM
IC80, pseudovirus neutralization [8]: 0.204 nM
IC50, pseudovirus neutralization [9]: 0.0151 nM
IC80, pseudovirus neutralization [9]: 0.0503 nM
IC50, pseudovirus neutralization [10]: > 10000 nM
IC80, pseudovirus neutralization [10]: > 10000 nM
IC50, pseudovirus neutralization [11]: 45.1 nM
IC80, pseudovirus neutralization [11]: 83.4 nM
IC50, pseudovirus neutralization [12]: > 10000 nM
IC80, pseudovirus neutralization [12]: > 10000 nM
IC50, pseudovirus neutralization [13]: > 10000 nM
IC80, pseudovirus neutralization [13]: > 10000 nM
IC50, pseudovirus neutralization [14]: > 10000 nM
IC80, pseudovirus neutralization [14]: > 10000 nM

A23_58.1 (antibody)
pseudovirus neutralization IC50 (nM (inferred)) [15]: > 66.7
pseudovirus neutralization IC80 (nM (inferred)) [15]: > 66.7
IC50, pseudovirus neutralization [16]: 0.0329 nM
IC80, pseudovirus neutralization [16]: 0.104 nM
pseudovirus neutralization IC50 (nM (inferred)) [17]: 0.0287
pseudovirus neutralization IC80 (nM (inferred)) [17]: 0.0656
pseudovirus neutralization IC50 (nM (inferred)) [7]: 0.647
pseudovirus neutralization IC80 (nM (inferred)) [7]: 4.96
pseudovirus neutralization IC50 (nM (inferred)) [8]: 0.853
pseudovirus neutralization IC80 (nM (inferred)) [8]: 4.24
IC50, pseudovirus neutralization [18]: 0.123 nM
IC80, pseudovirus neutralization [18]: 0.339 nM
pseudovirus neutralization IC50 (nM (inferred)) [9]: 1.72
pseudovirus neutralization IC80 (nM (inferred)) [9]: 6.12
IC50, pseudovirus neutralization [19]: 0.0133 nM
IC80, pseudovirus neutralization [19]: 0.0358 nM
IC50, pseudovirus neutralization [20]: 0.0097 nM
IC80, pseudovirus neutralization [20]: 0.0437 nM
pseudovirus neutralization IC50 (nM (inferred)) [21]: 0.124
pseudovirus neutralization IC80 (nM (inferred)) [21]: 0.26

bebtelovimab (antibody)
IC80, pseudovirus neutralization [2]: 1 nM
IC50, pseudovirus neutralization [22]: 0.32 nM
IC80, pseudovirus neutralization [22]: 15.6 nM
IC50, pseudovirus neutralization [23]: 26.4 nM
IC80, pseudovirus neutralization [23]: 65.1 nM
IC50, pseudovirus neutralization [10]: 8.51 nM
IC80, pseudovirus neutralization [10]: 24.5 nM
IC50, pseudovirus neutralization [11]: 26.4 nM
IC80, pseudovirus neutralization [11]: 65.1 nM
IC50, pseudovirus neutralization [12]: > 10000 nM
IC80, pseudovirus neutralization [12]: > 10000 nM
IC50, pseudovirus neutralization [13]: 11.5 nM
IC80, pseudovirus neutralization [13]: 28.1 nM
IC50, pseudovirus neutralization [14]: 11.4 nM
IC80, pseudovirus neutralization [14]: 22.4 nM

A19-61.1 (antibody)
pseudovirus neutralization IC50 (nM (inferred)) [15]: 0.128
pseudovirus neutralization IC80 (nM (inferred)) [15]: 0.322
IC50, pseudovirus neutralization [2]: 540 nM
IC80, pseudovirus neutralization [2]: 2170 nM
IC50, pseudovirus neutralization [16]: 0.175 nM
IC80, pseudovirus neutralization [16]: 0.325 nM
pseudovirus neutralization IC50 (nM (inferred)) [17]: 8.43
pseudovirus neutralization IC50 (nM (inferred)) [7]: 0.11
pseudovirus neutralization IC80 (nM (inferred)) [7]: 0.298
pseudovirus neutralization IC50 (nM (inferred)) [8]: > 66.7
pseudovirus neutralization IC80 (nM (inferred)) [8]: > 66.7
IC50, pseudovirus neutralization [18]: 0.0686 nM
IC80, pseudovirus neutralization [18]: 0.113 nM
pseudovirus neutralization IC50 (nM (inferred)) [9]: 0.0607
pseudovirus neutralization IC80 (nM (inferred)) [9]: 0.17
pseudovirus neutralization IC50 (nM (inferred)) [24]: > 66.7
pseudovirus neutralization IC80 (nM (inferred)) [24]: > 66.7
pseudovirus neutralization IC50 (nM (inferred)) [25]: 0.11
pseudovirus neutralization IC80 (nM (inferred)) [25]: 0.186
pseudovirus neutralization IC50 (nM (inferred)) [26]: 0.0418
pseudovirus neutralization IC80 (nM (inferred)) [26]: 0.0836
IC50, pseudovirus neutralization [19]: 0.209 nM
IC80, pseudovirus neutralization [19]: 0.292 nM
IC50, pseudovirus neutralization [20]: 0.135 nM
IC80, pseudovirus neutralization [20]: 0.288 nM
pseudovirus neutralization IC50 (nM (inferred)) [21]: 0.264
pseudovirus neutralization IC80 (nM (inferred)) [21]: 0.43

B1-182.1 (antibody)
pseudovirus neutralization IC50 (nM (inferred)) [15]: > 66.7
pseudovirus neutralization IC80 (nM (inferred)) [15]: > 66.7
IC50, pseudovirus neutralization [22]: 401 nM
IC80, pseudovirus neutralization [22]: 1020 nM
IC50, pseudovirus neutralization [16]: 0.0262 nM
IC80, pseudovirus neutralization [16]: 0.0844 nM
pseudovirus neutralization IC50 (nM (inferred)) [17]: 0.0549
pseudovirus neutralization IC80 (nM (inferred)) [17]: 0.11
pseudovirus neutralization IC50 (nM (inferred)) [7]: 0.739
pseudovirus neutralization IC80 (nM (inferred)) [7]: 5.92
IC50, pseudovirus neutralization [23]: 213 nM
IC80, pseudovirus neutralization [23]: 1300 nM
pseudovirus neutralization IC50 (nM (inferred)) [8]: 1.03
pseudovirus neutralization IC80 (nM (inferred)) [8]: 4.44
IC50, pseudovirus neutralization [18]: 0.0357 nM
IC80, pseudovirus neutralization [18]: 0.139 nM
pseudovirus neutralization IC50 (nM (inferred)) [9]: 2.12
pseudovirus neutralization IC80 (nM (inferred)) [9]: 8.5
pseudovirus neutralization IC50 (nM (inferred)) [24]: 2.55
pseudovirus neutralization IC80 (nM (inferred)) [24]: 6.47
pseudovirus neutralization IC50 (nM (inferred)) [25]: 0.0049
pseudovirus neutralization IC80 (nM (inferred)) [25]: 0.015
pseudovirus neutralization IC50 (nM (inferred)) [26]: 0.0639
pseudovirus neutralization IC80 (nM (inferred)) [26]: 0.183
IC50, pseudovirus neutralization [19]: 0.0099 nM
IC80, pseudovirus neutralization [19]: 0.0254 nM
IC50, pseudovirus neutralization [20]: 0.0182 nM
IC80, pseudovirus neutralization [20]: 0.0429 nM
pseudovirus neutralization IC50 (nM (inferred)) [21]: 0.0695
pseudovirus neutralization IC80 (nM (inferred)) [21]: 0.219

MX413 (A19-61 x A23-58H/B1-182L) (bispecific antibody)
IC50, pseudovirus neutralization [1]: > 10000 nM
IC80, pseudovirus neutralization [1]: > 10000 nM
IC50, pseudovirus neutralization [2]: 10 nM
IC80, pseudovirus neutralization [2]: 25 nM
IC50, pseudovirus neutralization [3]: 28.1 nM
IC80, pseudovirus neutralization [3]: 177 nM
IC50, pseudovirus neutralization [4]: 56 nM
IC80, pseudovirus neutralization [4]: 155 nM
IC50, pseudovirus neutralization [5]: 77.9 nM
IC80, pseudovirus neutralization [5]: 126 nM
IC50, pseudovirus neutralization [6]: 2.24 nM
IC80, pseudovirus neutralization [6]: 10.5 nM

LY-CoV555 (antibody)
pseudovirus neutralization IC50 [8]: > 67 nM
pseudovirus neutralization IC80 [8]: > 67 nM
pseudovirus neutralization IC50 [9]: > 67 nM
pseudovirus neutralization IC80 [9]: > 67 nM
pseudovirus neutralization IC50 [27]: 0.0145 nM
pseudovirus neutralization IC80 [27]: 0.0361 nM
